Paper PMC7477763

Molecular target: B-Ub-MERS27-VME (UniProt P0CG48)
UniProt P0CG48, sequence (P0CG48 whole entry, looked up): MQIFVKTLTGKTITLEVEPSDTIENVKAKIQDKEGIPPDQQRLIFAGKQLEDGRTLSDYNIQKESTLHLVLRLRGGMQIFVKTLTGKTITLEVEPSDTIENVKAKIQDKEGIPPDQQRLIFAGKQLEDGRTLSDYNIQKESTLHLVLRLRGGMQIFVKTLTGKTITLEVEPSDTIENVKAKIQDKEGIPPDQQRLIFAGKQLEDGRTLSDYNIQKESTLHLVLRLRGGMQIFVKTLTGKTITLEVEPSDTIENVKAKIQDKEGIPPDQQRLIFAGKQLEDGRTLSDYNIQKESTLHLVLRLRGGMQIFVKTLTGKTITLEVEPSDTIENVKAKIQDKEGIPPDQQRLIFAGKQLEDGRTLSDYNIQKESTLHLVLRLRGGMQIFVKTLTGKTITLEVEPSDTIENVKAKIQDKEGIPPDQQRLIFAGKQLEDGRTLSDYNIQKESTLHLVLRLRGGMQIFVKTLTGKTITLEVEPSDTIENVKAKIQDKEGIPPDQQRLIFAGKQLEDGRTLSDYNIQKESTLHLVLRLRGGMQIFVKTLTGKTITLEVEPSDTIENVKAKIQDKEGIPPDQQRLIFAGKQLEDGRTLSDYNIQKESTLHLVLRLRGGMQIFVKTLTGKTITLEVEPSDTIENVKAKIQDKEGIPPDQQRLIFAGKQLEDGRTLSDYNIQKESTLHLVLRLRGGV

## Middle East respiratory syndrome papain-like protease (MERS PLpro), recombinant
  kobs/I: 22 144 ± 1431 M^–1 s^–1
